The record followed here is the supplement of paper PMC9112550, “Optimization of the antimicrobial peptide Bac7 by deep mutational scanning” (BMC Biology, 2022).

The data set relates to Escherichia coli TOP10. The data set can be described thus: shrunken log2 fold change of peptide-encoding DNA abundance (4.5 h post-induction vs induction); higher = less antimicrobial activity (less host growth inhibition). The following applies: time post-induction: 4.5 h; library: site-saturation at positions 5, 18, 19, 20.
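Note: peptides expressed intracellularly from a pBAD plasmid library in pooled LB shake-flask culture, induced with 0.3% L-arabinose, DNA abundance read by NGS, three biological replicates, DESeq2 with apeglm shrinkage.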

RRIRVRPPRLPRPRPRPLSTPRP: the “shrunken log2 fold change” value was -0.0699.
As for RRIRTRPPRLPRPRPRPHTEPRP, the figure is -0.215.
As for RRIRRRPPRLPRPRPRPEMQPRP, the figure is 0.114; as for RRIRVRPPRLPRPRPRPLDKPRP, 0.0163.
As to RRIRRRPPRLPRPRPRPFIYPRP, the “shrunken log2 fold change” value is -0.194.
As for RRIRIRPPRLPRPRPRPQLWPRP, the figure is 0.575.
Take RRIRVRPPRLPRPRPRPMLDPRP: the “shrunken log2 fold change” value is -0.215.
As for RRIRLRPPRLPRPRPRPFNHPRP, the figure is -0.249; as for RRIRDRPPRLPRPRPRPEYFPRP, 0.0472; as for RRIRRRPPRLPRPRPRPGQTPRP, 0.0182.
For RRIRKRPPRLPRPRPRPIAQPRP the value was 0.208; for RRIRDRPPRLPRPRPRPAESPRP, -0.0371; for RRIRSRPPRLPRPRPRPLLHPRP, -0.0854.
For RRIRYRPPRLPRPRPRPALPPRP the value was -0.0414; for RRIRFRPPRLPRPRPRPWWNPRP, -0.26; for RRIRPRPPRLPRPRPRPVPPPRP, 0.26.
With RRIRNRPPRLPRPRPRPGICPRP, the “shrunken log2 fold change” value was found to be 0.122.
As for RRIRARPPRLPRPRPRPMCYPRP, the “shrunken log2 fold change” value is -0.112.
As for RRIRHRPPRLPRPRPRPKKNPRP, the figure is -0.14; as for RRIRQRPPRLPRPRPRPMQNPRP, -0.324.
As for RRIRYRPPRLPRPRPRPWFAPRP, the figure is -0.497.
As for RRIRYRPPRLPRPRPRPVPAPRP, the “shrunken log2 fold change” value is -0.156.
In the case of RRIRLRPPRLPRPRPRPFFSPRP, the “shrunken log2 fold change” value was -0.0767.
RRIRGRPPRLPRPRPRPWKDPRP: the “shrunken log2 fold change” value came out at 0.000655.
With RRIRLRPPRLPRPRPRPVHEPRP, the “shrunken log2 fold change” value was found to be 0.0233.
With RRIRYRPPRLPRPRPRPSFMPRP, the “shrunken log2 fold change” value is -0.759.
As for RRIRLRPPRLPRPRPRPSCKPRP, the “shrunken log2 fold change” value is 0.0208.
In the case of RRIRKRPPRLPRPRPRPRRAPRP, the “shrunken log2 fold change” value turned out to be 0.9.
As for RRIRGRPPRLPRPRPRPLVVPRP, the “shrunken log2 fold change” value worked out at 0.39.
For RRIRTRPPRLPRPRPRPKNTPRP the value was -0.508; for RRIRERPPRLPRPRPRPMQGPRP, -0.0783; for RRIRERPPRLPRPRPRPKQFPRP, -0.0933.
RRIRKRPPRLPRPRPRPRSVPRP: the “shrunken log2 fold change” value stood at 0.402.
As to RRIRTRPPRLPRPRPRPRQDPRP, the “shrunken log2 fold change” value was -0.144.
For the sequence RRIRYRPPRLPRPRPRPFYKPRP, the “shrunken log2 fold change” value was -0.00388.
As for RRIRDRPPRLPRPRPRPWNYPRP, the figure is -0.0121; as for RRIRPRPPRLPRPRPRPDKQPRP, 0.0524.
As for RRIRTRPPRLPRPRPRPILLPRP, the figure is -0.658.
As for RRIRARPPRLPRPRPRPEAGPRP, the figure is 1.5; as for RRIRYRPPRLPRPRPRPKKYPRP, -0.86.
With RRIRYRPPRLPRPRPRPRREPRP, the “shrunken log2 fold change” value was determined as 0.0181.
Take RRIRHRPPRLPRPRPRPLFPPRP: the “shrunken log2 fold change” value was -0.102.
On to RRIRERPPRLPRPRPRPKGCPRP, for which the “shrunken log2 fold change” value was -0.0587.
Take RRIRIRPPRLPRPRPRPAHRPRP: the “shrunken log2 fold change” value was -0.133.
Take RRIRERPPRLPRPRPRPCSSPRP: the “shrunken log2 fold change” value was 0.00543.
In the case of RRIRRRPPRLPRPRPRPWVIPRP, the “shrunken log2 fold change” value was -0.125.
As for RRIRKRPPRLPRPRPRPLPHPRP, the figure is -0.0107; as for RRIRYRPPRLPRPRPRPGPRPRP, 0.744.
As to RRIRCRPPRLPRPRPRPYQRPRP, the “shrunken log2 fold change” value was 0.055.
For RRIRGRPPRLPRPRPRPDVSPRP the value was 0.163.
As for RRIRWRPPRLPRPRPRPPVAPRP, the “shrunken log2 fold change” value was found to be 0.983.
For RRIRIRPPRLPRPRPRPETTPRP the value was -0.0691; for RRIRIRPPRLPRPRPRPECSPRP, -0.428; for RRIRGRPPRLPRPRPRPITVPRP, -0.0412.
Consider RRIRWRPPRLPRPRPRPVACPRP, for which the “shrunken log2 fold change” value was -0.052.
As for RRIRNRPPRLPRPRPRPVHPPRP, the figure is -0.0892.
As for RRIRVRPPRLPRPRPRPSRNPRP, the figure is -0.0696.
Regarding RRIRQRPPRLPRPRPRPTLNPRP, the “shrunken log2 fold change” value is 0.0729.
On to RRIRNRPPRLPRPRPRPTKFPRP, for which the “shrunken log2 fold change” value was -0.607.
Regarding RRIRERPPRLPRPRPRPDKTPRP, the “shrunken log2 fold change” value was -0.0128.
As for RRIRPRPPRLPRPRPRPCWQPRP, the figure is -0.021.
On to RRIRPRPPRLPRPRPRPSFRPRP, for which the “shrunken log2 fold change” value is -0.142.
For RRIRLRPPRLPRPRPRPWFGPRP the value was -0.149.
